# Source: US20150344570A1 (published 2015)
# T1: FcγRIIa H (human, UniProt P12318 34-217)
# T1 construct: extracellular domain; also called FcγRIIa type H; 2aH; not shown: His tag at the C terminus
# T1 sequence (looked up): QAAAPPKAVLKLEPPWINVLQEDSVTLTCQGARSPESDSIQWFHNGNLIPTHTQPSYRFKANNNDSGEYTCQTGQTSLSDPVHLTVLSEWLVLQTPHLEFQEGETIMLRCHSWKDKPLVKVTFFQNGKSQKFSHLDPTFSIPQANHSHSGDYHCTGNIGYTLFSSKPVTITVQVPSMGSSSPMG
# T2: FcγRIIb (human, UniProt P31994 43-217)
# T2 construct: extracellular domain; also called 2b; not shown: His tag at the C terminus
# T2 sequence (looked up): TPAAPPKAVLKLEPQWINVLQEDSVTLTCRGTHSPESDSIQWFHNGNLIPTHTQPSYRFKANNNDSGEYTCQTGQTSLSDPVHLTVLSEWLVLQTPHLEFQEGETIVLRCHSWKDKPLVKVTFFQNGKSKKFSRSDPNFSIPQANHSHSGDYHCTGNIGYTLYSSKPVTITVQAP
# T3: FcγRIIa H (FcγRIIa, allotype with His at position 131), extracellular domain with C-terminal His tag (human, UniProt P12318 34-217)
# T3 construct: extracellular domain; also called FcgRIIa H; 2aH; not shown: His tag at the C terminus
# T3 sequence (looked up): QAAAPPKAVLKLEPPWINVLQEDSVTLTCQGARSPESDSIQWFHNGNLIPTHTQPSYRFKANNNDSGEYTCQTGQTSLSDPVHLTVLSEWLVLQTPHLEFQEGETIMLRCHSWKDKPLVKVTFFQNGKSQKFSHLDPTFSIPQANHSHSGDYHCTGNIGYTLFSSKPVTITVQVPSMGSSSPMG
# T4: FcγRIIb, extracellular domain with C-terminal His tag (human, UniProt P31994 43-217)
# T4 construct: extracellular domain; also called FcgRIIb; 2b; not shown: His tag at the C terminus
# T4 sequence (looked up): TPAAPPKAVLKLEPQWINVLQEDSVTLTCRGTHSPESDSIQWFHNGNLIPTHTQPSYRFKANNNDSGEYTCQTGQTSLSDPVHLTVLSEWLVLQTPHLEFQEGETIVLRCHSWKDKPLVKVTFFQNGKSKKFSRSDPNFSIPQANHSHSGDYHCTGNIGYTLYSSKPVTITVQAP
# Key:
# FcγRIIa H [1] = target: T1, FcγRIIa H; test: SPR (Biacore); He/Con_2aH divided by He/Con_2b (FcγRIIa H over FcγRIIb)
# FcγRIIa H [2] = target: T1, FcγRIIa H; test: SPR (Biacore), antibody captured, FcγR as analyte; binding relative to GpH7-A5/GpH7-B3/GpL16-k0 = 100
# Procedure: (§1) The heterodimerized antibodies He Abs in which one of the H chains was introduced with an alteration were assayed for their binding activities to each activating FcγR and inhibitory FcγR according to the method described in Example 4. […] The activating FcγRs in FIGS. 26, 27, 28, and 29 are FcγRIa, FcγRIIa (R), FcγRIIa (H), and FcγRIIIa, respectively.
# (§2) Analysis of interaction between objective antibody and the FcγR was carried out using Biacore T100 (GE Healthcare). HBS-EP+ (GE Healthcare) was used as the running buffer, and the measurement temperature was set to 25° C. Chips produced by immobilizing the antigen peptide by the amine coupling method to a Series S Sencor Chip CM5 (GE Healthcare), or alternatively, chips produced by allowing preliminarily biotinylated antigen peptides to interact with and immobilize onto a Series S Sensor Chip SA (certified) (GE Healthcare) were used. Antibodies of interest were captured onto an antigen peptide-immobilized chip, and allowed to interact to each FcγR diluted with running buffer. To regenerate and repeatedly use the chip, the antibodies captured on the chip were washed off by reacting 10 mM glycine-HCl, pH 1.5.
# FcγRIIb = target: T2, FcγRIIb; test: as above
# Procedure: as §1, §2
# [3] = target: T3, FcγRIIa H (FcγRIIa, allotype with His …); test: SPR (Biacore); He/Con_2aH divided by He/Con_2b (FcγRIIb)
# [4] = target: T3, FcγRIIa H (FcγRIIa, allotype with His …); test: SPR (Biacore), relative binding vs GpH7-A5/GpH7-B3/GpL16-k0
# [5] = target: T4, FcγRIIb, extracellular domain with …; test: as above
Binder,He_2aH/2b (IIaH/IIb) (FcγRIIa H [1]) [ratio],He/Con_2aH (FcγRIIa H [2]),He/Con_2b (FcγRIIb),He_2aH/2b (IIaH/IIb) [3] [ratio],He/Con_2aH [4],He/Con_2b [5]
"GpH7-A5/GpH7-B3 variant G236_02A/GpL16-k0 (antibody, human IgG1, kappa, Heterodimerized IgG1; mutation in the GpH7-B3 chain only; also called He Ab) heavy 1: not shown heavy 2: not shown light: DIVMTQSPLSLPVTPGEPASISCQASESLVHSNRNTYLHWYLQKPGQSPQLLIYKVSNRFSGVPDRFSGSGSGTDFTLKISRVEAEDVGVYYCSQNTHVPPTFGQGTKVEIERTVAAPSVFIFPPSDEQLKSGTASVVCLLNNFYPREAKVQWKVDNALQSGNSQESVTEQDSKDSTYSLSSTLTLSKADYEKHKVYACEVTHQGLSSPVTKSFNRGEC",1.44,139 % of control,96.5 % of control,,,
"GpH7-A5/GpH7-B3 variant G236_08L/GpL16-k0 (antibody, human IgG1, kappa, Heterodimerized IgG1; mutation in the GpH7-B3 chain only; also called He Ab) heavy 1: not shown heavy 2: not shown light: DIVMTQSPLSLPVTPGEPASISCQASESLVHSNRNTYLHWYLQKPGQSPQLLIYKVSNRFSGVPDRFSGSGSGTDFTLKISRVEAEDVGVYYCSQNTHVPPTFGQGTKVEIERTVAAPSVFIFPPSDEQLKSGTASVVCLLNNFYPREAKVQWKVDNALQSGNSQESVTEQDSKDSTYSLSSTLTLSKADYEKHKVYACEVTHQGLSSPVTKSFNRGEC",2.83,75.8 % of control,26.8 % of control,,,
"GpH7-A5/GpH7-B3 variant G236_07I/GpL16-k0 (antibody, human IgG1, kappa, Heterodimerized IgG1; mutation in the GpH7-B3 chain only; also called He Ab) heavy 1: not shown heavy 2: not shown light: DIVMTQSPLSLPVTPGEPASISCQASESLVHSNRNTYLHWYLQKPGQSPQLLIYKVSNRFSGVPDRFSGSGSGTDFTLKISRVEAEDVGVYYCSQNTHVPPTFGQGTKVEIERTVAAPSVFIFPPSDEQLKSGTASVVCLLNNFYPREAKVQWKVDNALQSGNSQESVTEQDSKDSTYSLSSTLTLSKADYEKHKVYACEVTHQGLSSPVTKSFNRGEC",3.72,115 % of control,31 % of control,,,

# Now from value to binder:
He_2aH/2b (IIaH/IIb) (FcγRIIa H [1]) [ratio],He/Con_2aH (FcγRIIa H [2]),He/Con_2b (FcγRIIb),He_2aH/2b (IIaH/IIb) [3] [ratio],He/Con_2aH [4],He/Con_2b [5],Binder
3.16,30.3 % of control,,,,,"GpH7-A5/GpH7-B3 variant L235_12R/GpL16-k0 (antibody, human IgG1, kappa, Heterodimerized IgG1; mutation in the GpH7-B3 chain only; also called He Ab) heavy 1: not shown heavy 2: not shown light: DIVMTQSPLSLPVTPGEPASISCQASESLVHSNRNTYLHWYLQKPGQSPQLLIYKVSNRFSGVPDRFSGSGSGTDFTLKISRVEAEDVGVYYCSQNTHVPPTFGQGTKVEIERTVAAPSVFIFPPSDEQLKSGTASVVCLLNNFYPREAKVQWKVDNALQSGNSQESVTEQDSKDSTYSLSSTLTLSKADYEKHKVYACEVTHQGLSSPVTKSFNRGEC"
5.04,34.2 % of control,6.8 % of control,,,,"GpH7-A5/GpH7-B3 variant G236_12R/GpL16-k0 (antibody, human IgG1, kappa, Heterodimerized IgG1; mutation in the GpH7-B3 chain only; also called He Ab) heavy 1: not shown heavy 2: not shown light: DIVMTQSPLSLPVTPGEPASISCQASESLVHSNRNTYLHWYLQKPGQSPQLLIYKVSNRFSGVPDRFSGSGSGTDFTLKISRVEAEDVGVYYCSQNTHVPPTFGQGTKVEIERTVAAPSVFIFPPSDEQLKSGTASVVCLLNNFYPREAKVQWKVDNALQSGNSQESVTEQDSKDSTYSLSSTLTLSKADYEKHKVYACEVTHQGLSSPVTKSFNRGEC"
,,,0.59,55.5 % of HeCon Ab (=100),94.7 % of HeCon Ab (=100),"GpH7-A5/GpH7-B3 variant S324_05P/GpL16-k0 (antibody, human IgG1, kappa, Heterodimerized anti-glypican-3 IgG1; mutation in one H chain only; also called He Ab) heavy 1: not shown heavy 2: not shown light: DIVMTQSPLSLPVTPGEPASISCQASESLVHSNRNTYLHWYLQKPGQSPQLLIYKVSNRFSGVPDRFSGSGSGTDFTLKISRVEAEDVGVYYCSQNTHVPPTFGQGTKVEIERTVAAPSVFIFPPSDEQLKSGTASVVCLLNNFYPREAKVQWKVDNALQSGNSQESVTEQDSKDSTYSLSSTLTLSKADYEKHKVYACEVTHQGLSSPVTKSFNRGEC"
3.45,136 % of control,39.5 % of control,,,,"GpH7-A5/GpH7-B3 variant G236_15Y/GpL16-k0 (antibody, human IgG1, kappa, Heterodimerized IgG1; mutation in the GpH7-B3 chain only; also called He Ab) heavy 1: not shown heavy 2: not shown light: DIVMTQSPLSLPVTPGEPASISCQASESLVHSNRNTYLHWYLQKPGQSPQLLIYKVSNRFSGVPDRFSGSGSGTDFTLKISRVEAEDVGVYYCSQNTHVPPTFGQGTKVEIERTVAAPSVFIFPPSDEQLKSGTASVVCLLNNFYPREAKVQWKVDNALQSGNSQESVTEQDSKDSTYSLSSTLTLSKADYEKHKVYACEVTHQGLSSPVTKSFNRGEC"
